Results reported in paper PMC3936774.
Where two headings read alike, the source gives them in different places.

How the values were obtained:
[1] = target: Sa Hfq F25W (Staphylococcus aureus, UniProt A0A0H3JV59 1-77, F25W); experiment: Trp fluorescence quenching
[2] = target: T1, Lm Hfq F43W (Listeria monocytogenes, UniProt Q92C58 1-77, F43W); experiment: Trp fluorescence quenching
T1 sequence: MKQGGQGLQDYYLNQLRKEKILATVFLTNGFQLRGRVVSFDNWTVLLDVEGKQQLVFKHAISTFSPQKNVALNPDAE

[3] = target: Sa Hfq Q31W (Staphylococcus aureus, UniProt A0A0H3JV59 1-77, Q31W); experiment: Trp fluorescence quenching
[4] = target: Ec Hfq Q33W (Escherichia coli, UniProt P0A6X3 1-102, Q33W); experiment: Trp fluorescence quenching
[5] = target: Ec Hfq Y25W (Escherichia coli, UniProt P0A6X3 1-102, Y25W); experiment: Trp fluorescence quenching
[6] = target: Hfq WT (Escherichia coli, UniProt P0A6X3 1-102); experiment: fluorescence polarization
[7] = target: T2, Ec Hfq F42W (Escherichia coli, UniProt P0A6X3 1-102, F42W); experiment: Trp fluorescence quenching
[8] = target: T3, Ec Hfq F11W (Escherichia coli, UniProt P0A6X3 1-102, F11W); experiment: Trp fluorescence quenching
[9] = target: T4, Ec Hfq Y83W (Escherichia coli, UniProt P0A6X3 1-102, Y83W); experiment: Trp fluorescence quenching
[10] = target: T5, Ec Hfq F39W (Escherichia coli, UniProt P0A6X3 1-102, F39W); experiment: Trp fluorescence quenching
[11] = target: T3, Ec Hfq F11W; experiment: fluorescence polarization
[12] = target: Ec Hfq Q95W (Escherichia coli, UniProt P0A6X3 1-102, Q95W); experiment: fluorescence polarization
[13] = target: T6, Ec Hfq R17W (Escherichia coli, UniProt P0A6X3 1-102, R17W); experiment: fluorescence polarization
[14] = target: T7, Ec Hfq G77W (Escherichia coli, UniProt P0A6X3 1-102, G77W); experiment: fluorescence polarization
[15] = target: T4, Ec Hfq Y83W; experiment: fluorescence polarization
[16] = target: T5, Ec Hfq F39W; experiment: fluorescence polarization
[17] = target: T2, Ec Hfq F42W; experiment: fluorescence polarization
[18] = target: Ec Hfq K31W (Escherichia coli, UniProt P0A6X3 1-102, K31W); experiment: fluorescence polarization
[19] = target: T4, Ec Hfq Y83W; experiment: Trp fluorescence quenching; remark: listed apart in the source
[20] = target: T6, Ec Hfq R17W; experiment: Trp fluorescence quenching
[21] = target: T7, Ec Hfq G77W; experiment: Trp fluorescence quenching

Binder: AUAUAUA (ssRNA) [(AU)3A]
- binding result [1]: binds
- binding result [2]: binds
- binding result [3]: binds

Binder: AAAAAAAAAAAAAAA (ssRNA) [A15]
- binding result [1]: binds
- binding result [4]: binds
- binding result [5]: binds
- binding result [3]: binds

Binder: UUUUUUUUUUUUUUUU (ssRNA) [U16 (fluorescein)]
- Kd [6]: 6.6 nM

Binder: GUGUGUG (ssRNA) [(GU)3G]
- binding result [2]: binds

Binder: UUUUUU (ssRNA) [U6]
- binding result [2]: binds
- binding result [7]: binds

Binder: GCAUAUAAGGAAAAGAGAGAAUGG (ssRNA) [hfq mRNA site B 24-mer]
- binding result [4]: binds
- binding result [5]: binds
- binding result [8]: binds
- binding result [9]: binds
- binding result [10]: binds
- binding result [7]: binds

Binder: AAGAAGAAGAAGAAG (ssRNA) [(AAG)5]
- binding result [4]: binds
- binding result [8]: binds

Binder: ACACACA (ssRNA) [(AC)3A]
- binding result [1]: binds
- binding result [3]: binds

Binder: AAAAAAAAAAAAAAA (ssRNA) [A15 (fluorescein)]
- Kd [11]: 7.1 ± 0.6 nM
- Kd [12]: 2.6 ± 1.1 nM
- Kd [13]: 3.7 ± 1.5 nM
- Kd [14]: 2.9 ± 1.7 nM
- Kd [15]: 7.4 ± 2.8 nM
- Kd [16]: 0.59 ± 0.35 nM
- Kd [17]: 0.28 ± 0.09 nM
- Kd [18]: 1.4 ± 0.5 nM

Binder: GGAGGAGGAGGAGGA (ssRNA) [(GGA)5]
- binding result [7]: binds
- binding result [19]: binds

B1: hfq 5'-UTR (64 nt) (structured_RNA)
RNA: GGAUUUUUUCAGAAUCGAAAGGUUCAAAGUACAAAUAAGCAUAUAAGGAAAAGAGAGAAUGGGAUC
- binding result [4]: binds
- binding result [20]: binds
- binding result [7]: binds

Binder: AUUUUUUCAGAAUCGAAAGGUUCA (structured_RNA) [hfq mRNA site A 24-mer]
- binding result [4]: binds
- binding result [21]: binds
- binding result [9]: binds
- binding result [10]: binds
